Molecular target: β-clamp of the Escherichia coli replisome (E. coli) (UniProt P0A988)
Sequence of UniProt P0A988 (P0A988 whole entry): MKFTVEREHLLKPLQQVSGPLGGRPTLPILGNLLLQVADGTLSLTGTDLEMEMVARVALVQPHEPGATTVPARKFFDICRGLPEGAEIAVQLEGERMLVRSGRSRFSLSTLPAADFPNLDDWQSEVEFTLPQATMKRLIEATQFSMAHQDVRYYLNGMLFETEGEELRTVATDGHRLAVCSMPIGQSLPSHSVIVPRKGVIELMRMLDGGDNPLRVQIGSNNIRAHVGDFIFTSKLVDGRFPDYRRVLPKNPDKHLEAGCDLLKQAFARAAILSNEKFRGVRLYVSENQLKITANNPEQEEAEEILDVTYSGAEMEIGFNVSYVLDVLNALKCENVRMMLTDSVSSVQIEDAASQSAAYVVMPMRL

rate of cleavage of a 10 nucleotide 5' flap by Pol I, with template-loaded β-clamp against without (denaturing gel): 2.5 fold
Substance: DNA polymerase I (from UniProt P00582 1-928) (enzyme)

Reference: paper PMC6010275
